The values below come from patent US6030776.

In data set [1] the target is N-bromoacetyl-bradykinin (BrBK) (UniProt P01042). The following applies: 5' guanosine monophosphorothioate (GMPS); 100-fold reduction in Km vs bulk 30N1 pool, 67-fold higher kcat, 6700-fold higher kcat/Km; thioether bond formation assayed on APM gel.
For data set [2], the target named is bradykinin (native BK peptide) (UniProt P01042). The experiment in a line: inhibition. To be noted: 5' guanosine monophosphorothioate (GMPS); inhibition of reaction of 12.1 with BrBK; nearly identical to Km of the uninhibited reaction.
Data set [3] has as its target des-Arg9-bradykinin lacks carboxy-terminal Arg9 (UniProt P01042). The experiment in a line: inhibition. To be noted: 5' guanosine monophosphorothioate (GMPS); inhibition of reaction of 12.1 with BrBK; about 18-fold weaker than BK.

“AGGCUUCGACAAACGCUCAAAGCUGUUGGCAGCGCUGGUGAAGGGAUGGC [reactant 12.1 GMPS-RNA]” displayed a fold reduction in Km vs starting pool in data set [1] of 100 fold. Besides, the Ki (usually a measure of affinity in units of concentration, obtained from inhibition or displacement) in data set [2] was 140 µM; in data set [3] it was 2600 µM.
